The target of the assay is M3R-YFP (muscarinic acetylcholine receptor M3 with YFP fused C-terminally) (UniProt P20309). Nature of the assay: FRET or BRET; single-cell FRET in HEK293T cells transfected with M3R-YFP, Gαq, Gβ1 and mTurquoise2-Gγ2; laminar superfusion with buffer (137 mM NaCl, 5.4 mM KCl, 2 mM CaCl2, 1 mM MgCl2, 10 mM HEPES, pH 7.3) or agonist (ACh 30 µM, Metha, Fur, Are, Guva, Pilo, Mda one after the other in the same cell); amplitudes normalized to ACh; room temperature.

The results in this text go back to PMC8635974.

UniProt P20309, sequence (P20309 whole entry, the tested form may be a part): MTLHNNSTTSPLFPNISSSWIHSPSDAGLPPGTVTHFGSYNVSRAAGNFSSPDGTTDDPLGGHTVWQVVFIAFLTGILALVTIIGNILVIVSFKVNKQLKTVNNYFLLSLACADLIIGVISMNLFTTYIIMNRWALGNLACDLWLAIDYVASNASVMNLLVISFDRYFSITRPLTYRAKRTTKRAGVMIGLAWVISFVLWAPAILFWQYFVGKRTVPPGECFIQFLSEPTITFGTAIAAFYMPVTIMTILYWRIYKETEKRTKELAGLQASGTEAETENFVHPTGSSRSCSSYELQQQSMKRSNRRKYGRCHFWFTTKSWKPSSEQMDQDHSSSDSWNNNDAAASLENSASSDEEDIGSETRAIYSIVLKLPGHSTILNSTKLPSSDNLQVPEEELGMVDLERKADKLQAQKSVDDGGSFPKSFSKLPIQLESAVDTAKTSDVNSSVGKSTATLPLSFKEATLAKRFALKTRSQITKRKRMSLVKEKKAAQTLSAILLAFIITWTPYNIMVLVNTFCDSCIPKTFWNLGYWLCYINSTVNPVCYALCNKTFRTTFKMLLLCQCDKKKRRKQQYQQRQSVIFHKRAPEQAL

Consider “Gq protein (Gαq, Gβ1 and mTurquoise2-Gγ2) (from UniProt P50148 1-359; P62873 1-340; P59768 1-71) (complex; other documents disagree on this pair)”, for which the FRET amplitude with Are as agonist, relative to ACh (% of the ACh signal) amounted to 20; the FRET amplitude with Fur as agonist, relative to ACh (% of the ACh signal) was 60; the FRET amplitude with Guva as agonist, relative to ACh (% of the ACh signal) was 20; the FRET amplitude with Mda as agonist, relative to ACh (% of the ACh signal) came to 8. This substance also registered an FRET amplitude with Metha as agonist, relative to ACh (% of the ACh signal) of 60 and an FRET amplitude with Pilo as agonist, relative to ACh (% of the ACh signal) of 8.
